Values joined by “and” are separate entries in the source; they are usually repeats but may differ in a detail not shown here. Identical values can stand only once.
What was measured:
[1] = target: His6-tagged B. cereus C-SpoIISA (pETDuetCIISA Bc; pETDuetCIISAB Bc) (Bacillus cereus ATCC 14579) (UniProt Q81DD1); assay: cross-linking; 80 μg Ni-purified His6-C-SpoIISA with glutaraldehyde (5 μl of 2.3% in 100 μl), 30 min, 37°C; 12% SDS-PAGE and Western blot
[2] = target: untagged B. cereus C-SpoIISA (Bacillus cereus ATCC 14579) (UniProt Q81DD1); assay: SEC; purified untagged C-SpoIISA on Superose 6 10/300 GL, 0.4 ml/min, absorbance at 280 nm

Substance | stoichiometry N [1] | stoichiometry N [2]
His6-tagged B. cereus C-SpoIISA (pETDuetCIISA Bc; pETDuetCIISAB Bc) (from UniProt Q81DD1 1-245) (domain or fragment) | 2 and 3 | –
untagged B. cereus C-SpoIISA (from UniProt Q81DD1 1-245) (domain or fragment) | – | 2 and 3
